In patent US6096504A, “Maize glutathione-S-transferase enzymes” (E. I. du Pont Nemours and Company, priority 1999, dated 2000):

Experiments:
Assay type in all cases: biochemical
Conditions in all cases: purified enzyme, 0.4 mM electrophilic substrate, 4 mM glutathione, 0.1 M MOPS pH 7.0
[1] = GST conjugation of alachlor with glutathione (HPLC)
Excerpt: (§1) The GST enzymes, expressed and purified as described in Example 5 were screened for their ability to metabolize a variety of substrates. Substrates tested included the three herbicide electrophilic substrates chlorimuron ethyl, alachlor, and Atrazine, and four model electrophilic substrates, 1-chloro-2,4-dinitrobenzene (CDNB), ethacrynic acid, t-stilbene oxide, and 1,2-epoxy-3-(p-nitrophenoxy)propane. The enzymes were purified as described in Example 5 and used in the following assay.
(§2) For each enzyme, the conjugation reaction with each electrophilic substrate was performed by incubating 0.3 to 30 μg enzyme in 0.1 M MOPS (pH 7.0) containing 0.4 mM of the electrophilic substrate. The reaction was inititated by the addition of glutathione to a final concentration of 4 mM. After 5 to 30 min, the reaction was terminated by the addition of 45 μL acetonitrile, microfuged for 10 min to remove precipitated protein, and then the supernatent was removed and added to 65 μl of water. This sample was chromatographed on a Zorbax C8 reverse phase HPLC column (3 μm particle size, 6.2 mm×8 cm) using a combination of linear gradients (flow=1.5 mL/min) of 1% H3 PO4 in water (solvent A) and 1% H3 PO4 in acetonitrile. The gradient started with 5% solvent B, progressing from 5% to 75% solvent B between 1 and 10 min, and from 75% to 95% solvent B between 10 and 12 min. Control reactions without enzyme were performed to correct for uncatalyzed reaction. Quantitation of metabolites were based on an assumption that the extinction coefficient of the conjugate was identical to that of the electrophilic substrate.

[2] = GST conjugation of t-stilbene oxide with glutathione (HPLC)
Excerpt: as §1, §2

[3] = GST conjugation of Atrazine with glutathione (HPLC)
Excerpt: as §1, §2

[4] = GST conjugation of chlorimuron ethyl with glutathione (HPLC)
Excerpt: as §1, §2

[5] = GST conjugation of ethacrynic acid with glutathione (HPLC)
Excerpt: as §1, §2

[6] = GST conjugation of 1,2-epoxy-3-(p-nitrophenoxy)propane with glutathione (HPLC)
Excerpt: as §1, §2

[7] = GST conjugation of CDNB with glutathione (HPLC)
Excerpt: as §1, §2

| Molecule | activity of enzyme with Alachlor [1] [nmol/min/mg] | activity of enzyme with t-Stilbene Oxide [2] [nmol/min/mg] | activity of enzyme with Atrazine [3] [nmol/min/mg] | activity of enzyme with Chlorimuron-Ethyl [4] [nmol/min/mg] | activity of enzyme with Ethacrynic Acid [5] [nmol/min/mg] | activity of enzyme with 1,2-epoxy-3-(p-nitrophenoxy)propane [6] [nmol/min/mg] | activity of enzyme with CDNB [7] [nmol/min/mg] |
| --- | --- | --- | --- | --- | --- | --- | --- |
| m.15.5.d06.sk20: maize class II GST enzyme encoded by cDNA clone, expressed in E. coli (protein) MAEVEATVGRLMLYSYWRSSCSHRARIALNLKGVDYEYKAVNLLKGEQSDPEFVKLNPMKFVPALVDGSSVIGDSYAITLYLEDKYPEPPLLPQDLQKKALNHQIASIVASGIQPLHNLTVLRFIDQKVGAGESVLWTQQQIERGFTAIENLIQLKGCAGKYATGDEVQLADVFLAPQIYAAIERTKIDMSNYLTLARLHSEYMSHPAFEAALPGKQPDAPSSS | 0 | 0.00 | 0.00 | 0.1 | 17 | 1 | 45 |
| ceb1.pk0017.a5: maize class I GST enzyme encoded by cDNA clone, expressed in E. coli (protein) MAAPVTVYGPMLSPAVARVAACLLEKDVPFQIEPVDMSKGEHKSPSFLKLQPFGQVPAFKDHLTTVFESRAICRYICDQYADSGNQALFGKKEDGAVGRAAIEQWIESEGQSFNPPSLAIIFQLAFAPMMGRTTDLAVVEQNEAKLAKVLDVYDQRLGESQYFAGDDFSPGRPCALAQCRFPCEQNQQGWLDHREKESC | 0 | 0.00 | 0.00 | 0.1 | 5 | 0 | 15 |
| ceb5.pk0049.a11: maize class III GST enzyme encoded by cDNA clone, expressed in E. coli (protein) MAEEKKQGLQLLDFWVSPFGQRCRIALDEKGLAYEYLEQDLRNKSELLLRANPVHKKIPVLLHDGRPVCESLVIVQYLDEAFPEAAPALLPADPYARAQARFWADYVDKKLYDCGTRLWKLKGDGQAQARAEMVEILRTLEGALGDGPFFGGDALGFVDVALVPFTSWFLAYDRFGGVSVEKECPRLAAWAKRCAERPSVAKNLYPPEKVYDFVCGMKKRLGIE | 18 | 0.01 | 0.01 | 0.4 | 102 | 30 | 3939 |
| cs1.pk0010.c5: maize class I GST enzyme encoded by cDNA clone, expressed in E. coli (protein) MAAGLQVFGQPASTDVARVLTCLFEKKLEFELVRIDTFKTHHRLPEFIRLRDPNGQVTFKHGDKTLVDSRDICRYVCNQFPNYGNKSLYGSGALERASIEQWLQAEAQNFGPPSSALVFQLAFVPHLSHLGVRQDPAVIAENEDKLKQVLDVYDEILSKNEYLAGDEFTLADLSHLPNSHYIVNTERGRKLFTNKKNVAKWYDRLSKRETWVQVVKMQKEHPGAFK | 0 | 0.00 | 0.00 | 0.1 | 9 | 0 | 30 |
| ceb5.pk0051.f8: maize class III GST enzyme encoded by cDNA clone, expressed in E. coli (protein) MAGETKKGLVLLDFWVSPFGQRCRIALAEKGIAYEYSEQELLGGAKSDILLRSNPVHKKIPVLLHDGRPVCESLVILEYLEEAFPEASPRLLPDAAYARAQARFWAAYSDKVYKAGTRLWKLRGDARAQARAEIVQVVRNLDGELGDKAFFGGEAFGFVDVALVPFVPWLPSYERYGDFSVAEIAPRLAAWARRCAQRESVARTLHPPEKVDEFINLLKKTYGIE | 27 | 0.02 | 0.08 | 1.9 | 117 | 14 | 2136 |
| bms1.pk0023.g8: maize class I GST enzyme encoded by cDNA clone, expressed in E. coli (protein) MAPPMKVYGWAVSPWMARALVCLEEAGADYEIVPMSRCGGDHRRPEHLAKNPFGEIPVLEDGDLTLYQSRAIARYVLRKLKPELLREGDLEGSAMVDAWMEVEAHHMEPALWPIIRHSIIGQYVGRERDHQAVIDENLDRLRKVLPAYEARLSVCKYLVGDDISAADLCHFGFMRYFMATEYAGLVDAYPHVKAWWDALLARPSVQKVMAGMPPDFGYASGNIP | 0 | 0.00 | 0.00 | 0.2 | 13 | 0 | 15 |
